Measurements reported in paper PMC4413047, “‘Dopamine-first’ mechanism enables the rational engineering of the norcoclaurine synthase aldehyde activity profile” (The Febs Journal, 2015).

How the values were obtained:
Test in all cases: purified protein
Assay type in all cases: biochemical, Thalictrum flavum
CC(C)=CCC[C@@H](C)CC=O = details: 2.5 mM dopamine (nonsaturating), 50 mM Hepes, 37 °C
CC(C)=CCC[C@H](C)CC=O = details: 2.5 mM dopamine (nonsaturating), 50 mM Hepes, 37 °C
CCCCCC=O = details: 2.5 mM dopamine (nonsaturating), 50 mM Hepes, 37 °C
NCCc1ccc(O)c(O)c1 = details: 2.5 mM 4-HPAA (nonsaturating), 50 mM Hepes, 37 °C
O=CCc1ccc(O)cc1 = details: 2.5 mM dopamine (nonsaturating), 50 mM Hepes, 37 °C

TfNCS (Δ29TfNCS) (Thalictrum flavum subsp. glaucum)
Km (CC(C)=CCC[C@@H](C)CC=O): 0.53 ± 0.14 mM | Vmax (CC(C)=CCC[C@@H](C)CC=O): 1.07 µmol/min/mg | kcat (CC(C)=CCC[C@@H](C)CC=O): 0.37 ± 0.03 s⁻¹ | kcat/Km (CC(C)=CCC[C@@H](C)CC=O): 710 ± 200 M⁻¹ s⁻¹ | Km (CC(C)=CCC[C@H](C)CC=O): 0.38 ± 0.10 mM | Vmax (CC(C)=CCC[C@H](C)CC=O): 1.32 µmol/min/mg | kcat (CC(C)=CCC[C@H](C)CC=O): 0.46 ± 0.02 s⁻¹ | kcat/Km (CC(C)=CCC[C@H](C)CC=O): 1200 ± 310 M⁻¹ s⁻¹ | Km (CCCCCC=O): 13.4 ± 1.8 mM | Vmax (CCCCCC=O): 12.3 µmol/min/mg | kcat (CCCCCC=O): 4.3 ± 0.3 s⁻¹ | kcat/Km (CCCCCC=O): 320 ± 50 M⁻¹ s⁻¹ | Km (NCCc1ccc(O)c(O)c1): 22.2 ± 1.5 mM | Vmax (NCCc1ccc(O)c(O)c1): 69 µmol/min/mg | kcat (NCCc1ccc(O)c(O)c1): 24 ± 1 s⁻¹ | kcat/Km (NCCc1ccc(O)c(O)c1): 1090 ± 80 M⁻¹ s⁻¹ | Km (O=CCc1ccc(O)cc1): 18.1 ± 1.4 mM | Vmax (O=CCc1ccc(O)cc1): 53.6 µmol/min/mg | kcat (O=CCc1ccc(O)cc1): 18.7 ± 0.9 s⁻¹ | kcat/Km (O=CCc1ccc(O)cc1): 1030 ± 90 M⁻¹ s⁻¹

TfNCS (Δ29TfNCS) (Thalictrum flavum subsp. glaucum; L76A)
Km (CC(C)=CCC[C@@H](C)CC=O): 0.49 ± 0.11 mM | Vmax (CC(C)=CCC[C@@H](C)CC=O): 1.58 µmol/min/mg | kcat (CC(C)=CCC[C@@H](C)CC=O): 0.55 ± 0.03 s⁻¹ | kcat/Km (CC(C)=CCC[C@@H](C)CC=O): 1130 ± 270 M⁻¹ s⁻¹ | Km (CC(C)=CCC[C@H](C)CC=O): 0.59 ± 0.09 mM | Vmax (CC(C)=CCC[C@H](C)CC=O): 2.7 µmol/min/mg | kcat (CC(C)=CCC[C@H](C)CC=O): 0.93 ± 0.05 s⁻¹ | kcat/Km (CC(C)=CCC[C@H](C)CC=O): 1570 ± 250 M⁻¹ s⁻¹ | Km (CCCCCC=O): 13.4 ± 0.8 mM | Vmax (CCCCCC=O): 9 µmol/min/mg | kcat (CCCCCC=O): 3.2 ± 0.1 s⁻¹ | kcat/Km (CCCCCC=O): 240 ± 20 M⁻¹ s⁻¹ | Km (NCCc1ccc(O)c(O)c1): 16.8 ± 1.0 mM | Vmax (NCCc1ccc(O)c(O)c1): 38.9 µmol/min/mg | kcat (NCCc1ccc(O)c(O)c1): 13.6 ± 0.5 s⁻¹ | kcat/Km (NCCc1ccc(O)c(O)c1): 810 ± 60 M⁻¹ s⁻¹ | Km (O=CCc1ccc(O)cc1): 17.4 ± 1.0 mM | Vmax (O=CCc1ccc(O)cc1): 40.9 µmol/min/mg | kcat (O=CCc1ccc(O)cc1): 14.3 ± 0.5 s⁻¹ | kcat/Km (O=CCc1ccc(O)cc1): 820 ± 50 M⁻¹ s⁻¹

TfNCS (Δ29TfNCS) (Thalictrum flavum subsp. glaucum; Y108F)
Km (CCCCCC=O): 7.6 ± 0.9 mM | Vmax (CCCCCC=O): 7.14 µmol/min/mg | kcat (CCCCCC=O): 2.5 ± 0.1 s⁻¹ | kcat/Km (CCCCCC=O): 330 ± 40 M⁻¹ s⁻¹ | Km (NCCc1ccc(O)c(O)c1): 13.3 ± 0.7 mM | Vmax (NCCc1ccc(O)c(O)c1): 29.1 µmol/min/mg | kcat (NCCc1ccc(O)c(O)c1): 10.2 ± 0.3 s⁻¹ | kcat/Km (NCCc1ccc(O)c(O)c1): 760 ± 50 M⁻¹ s⁻¹
